Source: US20050079218A1, “Matrices for the stabilizing and controlled release of problematic substances” (priority 2001, published 2005)

What was measured:
[1] = release of model substances from cylindrical lipid carrier systems with differing gelatin content (FIGS. 3 and 4); format: physicochemical; settings: phosphate buffer pH 7.4, 37° C.; for period of controlled release: lipid matrix with 0, 1, 5, 10 and 20% gelatin, cylindrical; for control of release via gelatin content: fluorescence intensity
From the text: FIGS. 3 and 4 show diagrams illustrating the dependence of the rate of release on the proportion of release-controlling substance in the carrier system according to the invention. In the embodiment shown in FIGS. 3 and 4, a lipid matrix composed of glycerol tripalmitate with differing gelatin contents […]. The carrier system used is cylindrical in shape.
The proportion of gelatin within the carrier system is 0, 1, 5, 10 and 20%.
The quantity released in percent is shown on the ordinate, and the time in days on the abscissa.
Substances used for the release from the carrier system (for example pyranine or tetramethylrhodamine-labelled bovine serum albumin (TAMRA-BSA) were dispersed in the desired quantity in an aqueous 15% (m/m) gelatin solution. 100-μl portions of this dispersion were pipetted into each opening in a 96-hole plate, and freeze-dried. The lyophilisate was comminuted in a mortar, and mixed with glyceryl trimyristate in a desired percentage. Powder mixtures with a content of up to 30% (m/m) of gelatin resulted. Cylindrical carrier systems were produced by compressing the corresponding proportions by weight of gelatin with lipid granulate. To this end, 7 mg of substance was produced in a 2-mm pressing tool using a compressive force of 250 N over 10 sec. In this way, carrier system charged with pyranine or fluorescence-labelled bovine serum albumin (TAMRA-BSA) were produced in the composition, as shown in Table 1.
(§1) To test the release of model substances from carrier systems depending on the content of release-controlling substance, the cylinders obtained in Example 1 were incubated at 37° C. in 40 ml of phosphate buffer at pH 7.4. The release of the substances was monitored by measuring the fluorescence intensity. To this end, pyranine was excited at 407 nm and the emission measured over 436 nm. The TAMRA-BSA content was determined at a wavelength of 572 nm with excitation at 541 nm.

[2] = release of active hyaluronidase from carrier matrices in phosphate buffer, activity via Morgan-Elson reaction (FIG. 1); format: physicochemical
Protocol: The ordinate gives the release quantity of hyaluronidase in percent, and the abscissa the time in hours.
as §1
To test the stabilising properties of the carrier systems, glyceryl trimyristate was worked up with hyaluronidase. To this end, 25 mg neopermease, a mixture of 200,000 IU hyaluronidase and gelatin, was mixed with 325 mg of lipid and compressed as described in Example 1 to form cylindrical carrier systems weighing 7 mg. The gelatin content of this mixture was approximately 7.1%. To determine the release of the enzyme, 5 matrices were incubated with phosphate buffer as described in Example 2, and the release determined by measuring the activity via the Morgan-Elson reaction (Muckenschnabel I., Cancer Lett. 131(1) (1998) 13 to 20).

U78 MG tumour = assay: efficacy of BCNU matrices in tumour-bearing nude mice (FIG. 2); format: in vivo; settings: U78 MG tumour subcutaneously inoculated
Protocol: Thus the effectiveness of BCNU in tumour-bearing nude mice (U78 MG tumour subcutaneously inoculated) is the same for a lipid matrix according to the invention and for a conventional polyanhydride matrix, as shown in FIG. 2.
In FIG. 2, the area of the tumour is plotted in […] on the ordinate, and the time in days on the abscissa.

[3] = cited from earlier work

Question: Which results are given for O=S(=O)([O-])c1cc(O)c2ccc3c(S(=O)(=O)[O-])cc(S(=O)(=O)[O-])c4ccc1c2c34.[Na+].[Na+].[Na+] [pyranine]?
Answer: period of controlled release [1]: over a period of several weeks; control of release via gelatin content [1]: optimally controlled via the gelatin content

Question: Which “activity liberated from carrier system” value ([2]; glyceryl trimyristate cylinders, gelatin approximately 7.1%, phosphate buffer pH 7.4, 37° C.) does the source give for hyaluronidase here?
Answer: Its value is “all the activity is liberated”.

Question: And the “effect of release on the enzyme” value ([2]; release from conventional system poly(1,3-bis[carboxyphenoxypropane]-sebacic acid) 20:80)?
Answer: The value was “inactivation”.

Question: What about the “activity of the enzyme achieved on release” value ([2]; release from glyceryl tripalmitate matrix) of the same molecule?
Answer: Its value is 100%.

Question: Which “period of controlled release” value [1] does the source give for “TAMRA-BSA: bovine serum albumin fluorescence-labelled with tetramethylrhodamine” here?
Answer: The value was “over a number of weeks or months”.

Question: What about the “control of release via gelatin content” value [1] of the same molecule?
Answer: The value was “optimally controlled via the gelatin content”.

Question: Which results are given for O=NN(CCCl)C(=O)NCCCl [BCNU, carmustine]?
Answer: effectiveness (tumour area over time), lipid matrix versus conventional polyanhydride matrix (U78 MG tumour): the same; half-life in plasma [3]: approximately 20 minutes
